The values that follow come from patent publication US20220242939A1 (BIOARCTIC, published 2022).

Test [1] deals with T1, recombinant C-terminal ApoE fragment L198-HIS (ApoE-L198-H299-10xHIS) (human, UniProt P02649 216-317).
T1 construct: also called L198-HIS fragment
Nature of the test: direct ELISA, L198-HIS coated at 0.1 µM. The procedure:
(§1) Selectivity evaluation of purified monoclonal antibodies by direct ELISA: The direct ELISA described below was used to evaluate the binding selectivity of the purified monoclonal antibodies produced in Example 14.
(§2) The screening was performed according to standard ELISA protocols. Briefly, 1 μg/ml solutions of BSA-conjugated neo-epitope peptides and negative control peptide, and 0.1 μM recombinant C-terminal ApoE fragment and full-length ApoE (Abcam, cat. no. ab50243) were prepared by dilution in PBS. 50 μl/well were added to an ELISA half-area 96 well microtiter plate, and the plate was sealed with adhesive sealer and incubated over night at 4° C. After discarding the solution, the plates were blocked with 150 μl/well of protein-free blocking solution (Pierce) for 1 h at room temperature with shake (600-900 rpm). The plates were washed four times with washing buffer containing 0.28 mM NaH₂PO₄, 2.5 mM Na₂HPO₄, 150 mM NaCl, 0.1% TWEEN®-20 and 0.0075% Kathon CG. Purified monoclonal antibodies of interest were 3-fold serially diluted with a starting dilution at 3 μg/ml (mixed 1:2 with dilution buffer (PBS with 0.1% BSA and 0.05% TWEEN®-20)). An anti-ApoE C-terminal antibody was used as a reference antibody (ApoE E-8 mouse monoclonal, Santa Cruz Biotechnology, cat. no. sc-393302). 50 μl/well were added into the ELISA plates and incubated for 2 h at room temperature with shake (600-900 rpm). The plates were washed four times as described previously. […] After another wash (as described previously), 50 μl/well of K-Blue® aqueous substrate (Neogen) were added, and the reaction was stopped after 5-15 min with 50 μl/well of 0.5 M […]. The optical density at 450 nm was read using an ELISA reader (Tecan).

In test [2] the target is T2, L198 N-terminal neo-epitope peptide LAGQPL-Acp-C (SEQ ID NO:52) conjugated to BSA (human, not fully specified (residue 8); printed as LAGQPL-Acp-C; also: C-terminal Cys conjugated to BSA carrier).
T2 construct: BSA carrier; also called L198-BSA peptide
T2 peptide: LAGQPL[Ahx]C
Nature of the test: direct ELISA, L198-BSA peptide coated at 1 µg/ml. How it is done: as §1, §2

The target of test [3] is T3, L198 N-terminal neo-epitope peptide LAGQPLQE-Acp-C (SEQ ID NO:54) conjugated to BSA (human, not fully specified (residue 10); printed as LAGQPLQE-Acp-C; also: C-terminal Cys conjugated to BSA carrier).
T3 construct: BSA carrier
T3 peptide: LAGQPLQE[Ahx]C
Kind of test: direct ELISA after limiting dilution.

The target of test [4] is T4, full-length ApoE in human brain extract from Alzheimer's disease patients (human, UniProt P02649 19-317).
T4 construct: mature; Endogenous protein on Western blot or in solution (IP); also called ApoE full-length protein
T4 sequence (P02649 19-317): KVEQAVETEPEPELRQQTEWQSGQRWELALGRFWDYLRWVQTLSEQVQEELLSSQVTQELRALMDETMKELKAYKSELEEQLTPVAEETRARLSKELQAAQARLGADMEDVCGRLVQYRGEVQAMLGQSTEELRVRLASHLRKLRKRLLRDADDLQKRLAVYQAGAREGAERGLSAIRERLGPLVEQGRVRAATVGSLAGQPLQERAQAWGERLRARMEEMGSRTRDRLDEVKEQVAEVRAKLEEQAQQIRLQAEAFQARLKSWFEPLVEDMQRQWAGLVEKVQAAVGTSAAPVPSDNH
Nature of the test: Western blot of AD brain RIPA 2% SDS extract; monoclonal antibody at 2 ug/ml as primary antibody.

Test [5] deals with T1, recombinant C-terminal ApoE fragment …. Kind of test: SPR (Biacore 8K), L198-HIS amine-coupled on CM5, antibody as analyte, bivalent analyte fit (kd1). How it is done:
(§3) Selectivity evaluation and KD determination of purified monoclonal antibodies by surface plasmon resonance: Binding interactions between the antigens and antibodies were evaluated by surface plasmon resonance (SPR) using a Biacore 8K instrument (GE Healthcare) according to standard procedures.
(§4) Selectivity evaluation and KD determination of purified monoclonal antibodies by surface plasmon resonance: The five purified monoclonal antibodies 6F4, 8B3, 12B1, 15F8 and 15H11 were evaluated for selectivity, and KD values for the target antigen were determined by surface plasmon resonance.

For test [6] the target is unchanged. Nature of the test: SPR (Biacore 8K), L198-HIS amine-coupled on CM5, antibody as analyte, bivalent analyte fit (ka1).
Test [7] has the same target. Nature of the test: SPR (Biacore 8K), L198-HIS amine-coupled on CM5, antibody as analyte, bivalent analyte fit (KD1). The procedure: as §3, §4
For test [8], the target named is T5, 7B10, recombinant IgG2c antibody.
T5 construct: also called 7610
T5 sequence (VH, as listed by the source, chain 1 of 2): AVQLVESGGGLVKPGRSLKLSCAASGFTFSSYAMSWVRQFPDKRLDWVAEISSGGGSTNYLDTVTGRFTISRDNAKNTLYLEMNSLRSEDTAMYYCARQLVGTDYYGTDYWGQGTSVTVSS
T5 sequence (VL, as listed by the source, chain 2 of 2): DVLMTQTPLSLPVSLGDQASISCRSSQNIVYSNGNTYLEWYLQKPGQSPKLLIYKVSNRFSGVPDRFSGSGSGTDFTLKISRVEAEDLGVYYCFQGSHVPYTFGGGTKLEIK
Kind of test: inhibition ELISA, second protocol; antibody at 0.05 ug/ml pre-incubated with the peptide in solution (4-fold dilutions from 10000 ng/ml), then on a plate coated with G200-BSA peptide; blank reduced OD 405 nm. The procedure: (§5) […] of each synthetic ApoE peptide, recombinant C-terminal ApoE fragment G200-HIS and full-length ApoE4 were prepared by 4-fold dilution starting from 1000 ng/ml in 96 well storage plates (30 μl final volume). Each recombinant antibody to be tested was added (30 μl) to the serial dilutions of each of the synthetic ApoE peptides, G200-HIS or full-length ApoE4 at a final concentration of 0.05 μg/ml per well. Samples were pre-incubated for 45 min at room temperature with shaking (900 rpm).
(§6) The pre-incubated samples were transferred (50 μl/well) to the blocked ELISA plates, and plates were incubated for 25 min at room temperature without shaking. Plates were washed as described above. Alkaline phosphatase conjugated anti-mouse IgG detection antibody (Mabtech, cat. no. 3310-4) was diluted 1:1000 and added to each plate (50 μl/well). The plate was sealed and incubated with shaking (900 rpm) for 45 min at room temperature and subsequently washed as described above. Alkaline phosphatase substrate (50 μl/well) was added to the plate and the optical density was read every 15 min at a wavelength of 405 nm for up to 120 min. The IC50 values were determined from a log inhibitor concentration response curve (FIG. 17).
(§7) In addition, a second inhibition ELISA with the ApoE peptides conjugated to BSA was run, in which the starting concentration of the antigens in solution was increased 10-fold. i.e. the starting concentration of the N-terminal neo-epitope of synthetic ApoE peptides conjugated to BSA and starting at amino acid L198 (SEQ ID NO:52), A199 (SEQ ID NO:51) or G200 (SEQ ID NO:50), or to BSA-conjugated negative control peptide (SEQ ID NO:53), was 10000 ng/ml. Furthermore, a 4-fold serial dilution of antigen was used, the plates were blocked with protein-free blocking solution (Pierce) for 90 min, the pre-incubated samples were incubated on the coated plates for 10 min (instead of 25 min), and the optical density was read every 10 min (instead of every 15 min). IC50 values were determined from a log inhibitor concentration response curve (FIG. 20).

Test [9] deals with 7C7, recombinant IgG2c antibody. Described as above. The procedure:
as §5, §6, §7

The target of test [10] is 23D5, recombinant IgG2c antibody. The test is described as above. How it is done:
as §5, §6, §7

Test [11] concerns the target 17G4, recombinant IgG2c antibody. The test is described as above. The procedure: as §5, §6, §7
For test [12], the target named is 38G9, monoclonal anti-A199 antibody. Kind of test: inhibition ELISA: antigen in solution varied, antibody 38G9 at 0.05 µg/ml, plate coated with A199-BSA peptide. The procedure: (§8) 0.5 μg/ml solution of N-terminal neo-epitope peptide A199 (SEQ ID NO:51) conjugated to BSA was prepared by dilution in PBS. 50 μl/well were added to an ELISA half-area 96 well microtiter plate, the plate was sealed with adhesive sealer and incubated over night at 4° C. After discarding the solution, the plates were blocked with protein-free blocking solution (Pierce) (150 μl/well) at room temperature for 90 min with shaking (900 rpm). The blocked plate was washed four times with washing buffer containing 0.28 mM NaH₂PO₄, 2.5 mM Na₂HPO₄, 150 mM NaCl, 0.1% TWEEN®-20 and 0.0075% Kathon CG.
Chain of 38G9, monoclonal anti-A199 antibody (VH, as listed by the source, chain 1 of 2): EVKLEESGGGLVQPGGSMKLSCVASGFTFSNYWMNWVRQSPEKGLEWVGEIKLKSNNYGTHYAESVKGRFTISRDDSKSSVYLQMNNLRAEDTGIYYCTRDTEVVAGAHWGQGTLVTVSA
Chain of 38G9, monoclonal anti-A199 antibody (VL, as listed by the source, chain 2 of 2): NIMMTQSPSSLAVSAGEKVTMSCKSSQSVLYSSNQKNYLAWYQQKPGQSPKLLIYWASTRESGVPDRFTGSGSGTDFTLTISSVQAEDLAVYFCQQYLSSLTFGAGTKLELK
(§9) Serial dilutions of each synthetic ApoE peptide were prepared by 4-fold dilution starting from 10000 ng/ml in 96 well storage plates (30 μl final volume). Each purified monoclonal antibody to be tested was added (30 μl) to the serial dilutions of each of the synthetic ApoE peptides at a final concentration of 0.05 μg/ml per well. […]
(§10) The pre-incubated samples were transferred (50 μl/well) to the blocked ELISA plates, and plates were incubated for 10 min at room temperature without shaking. […] Alkaline phosphatase substrate (50 μl/well) was added to the plate and the optical density was read every 10 min at a wavelength of 405 nm for up to 120 min. The IC50 values were determined from a log inhibitor concentration response curve (FIG. 29).

In test [13] the target is 67G3, monoclonal anti-A199 antibody. Kind of test: inhibition ELISA: antigen in solution varied, antibody 67G3 at 0.05 µg/ml, plate coated with A199-BSA peptide. The procedure: as §8, §9, §10
Chain of 67G3, monoclonal anti-A199 antibody (VH, as listed by the source, chain 1 of 2): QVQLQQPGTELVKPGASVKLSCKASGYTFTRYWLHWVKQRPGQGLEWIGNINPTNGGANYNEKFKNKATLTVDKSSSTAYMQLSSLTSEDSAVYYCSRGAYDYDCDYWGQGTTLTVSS
Chain of 67G3, monoclonal anti-A199 antibody (VL, as listed by the source, chain 2 of 2): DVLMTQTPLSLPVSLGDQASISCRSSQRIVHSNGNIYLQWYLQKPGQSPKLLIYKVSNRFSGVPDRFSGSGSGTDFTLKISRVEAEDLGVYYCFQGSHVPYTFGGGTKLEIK
For test [14], the target named is 6F4, monoclonal anti-L198 antibody. Kind of test: inhibition ELISA; antibody at 0.05 ug/ml pre-incubated with the peptide in solution (4-fold dilutions from 10000 ng/ml), then on a plate coated with L198-BSA peptide; blank reduced OD 405 nm. The procedure:
0.5 μg/ml solution of N-terminal neo-epitope peptide L198 (SEQ ID NO:52) conjugated to BSA was prepared by dilution in PBS. 50 μl/well were added to an ELISA half-area 96 well microtiter plate, the plate was sealed with adhesive sealer and incubated over night at 4° C. After discarding the solution, the plates were blocked with protein-free blocking solution (Pierce) (150 μl/well) at room temperature for 90 min with shaking (900 rpm). The blocked plate was washed four times with washing buffer containing 0.28 mM NaH₂PO₄, 2.5 mM Na₂HPO₄, 150 mM NaCl, 0.1% TWEEN®-20 and 0.0075% Kathon CG.
Serial dilutions of each synthetic ApoE peptide were prepared by 4-fold dilution starting from 10000 ng/ml in 96 well storage plates (30 μl final volume). Each recombinant antibody to be tested was added (30 μl) to the serial dilutions of each of the synthetic ApoE peptides at a final concentration of 0.05 μg/ml per well. Samples were pre-incubated for 45 min at room temperature with shaking (900 rpm).
as §6, with “10” for “25”, “10” for “15”, “25).” for “17).”

Test [15] has as its target 63F6, monoclonal anti-A199 antibody. Nature of the test: inhibition ELISA: antigen in solution varied, antibody 63F6 at 0.05 µg/ml, plate coated with A199-BSA peptide. The procedure: as §8, §9, §10
The target of test [16] is 36A12, monoclonal anti-A199 antibody. Kind of test: inhibition ELISA: antigen in solution varied, antibody 36A12 at 0.05 µg/ml, plate coated with A199-BSA peptide. How it is done: as §8, §9, §10
Chain of 36A12, monoclonal anti-A199 antibody (VH, as listed by the source, chain 1 of 2): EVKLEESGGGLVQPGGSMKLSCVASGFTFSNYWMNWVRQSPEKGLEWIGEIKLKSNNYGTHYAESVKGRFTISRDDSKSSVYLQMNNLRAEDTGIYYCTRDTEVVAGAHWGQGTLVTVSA
Chain of 36A12, monoclonal anti-A199 antibody (VL, as listed by the source, chain 2 of 2): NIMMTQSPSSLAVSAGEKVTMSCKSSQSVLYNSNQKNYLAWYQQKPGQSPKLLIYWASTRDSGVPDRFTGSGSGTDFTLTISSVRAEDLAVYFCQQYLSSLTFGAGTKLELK

Non-standard residues stand in square brackets, D forms with d. No end group written: not given here. Ahx = NCCCCCC(=O)O

T1 sequence (P02649 other isoform, or with tags, fused parts or gaps limits assumed): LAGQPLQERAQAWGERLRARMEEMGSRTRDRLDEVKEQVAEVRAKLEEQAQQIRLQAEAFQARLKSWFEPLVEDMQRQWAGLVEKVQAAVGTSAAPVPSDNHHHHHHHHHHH
Chain of 6F4, monoclonal anti-L198 antibody (VH, as listed by the source, chain 1 of 2): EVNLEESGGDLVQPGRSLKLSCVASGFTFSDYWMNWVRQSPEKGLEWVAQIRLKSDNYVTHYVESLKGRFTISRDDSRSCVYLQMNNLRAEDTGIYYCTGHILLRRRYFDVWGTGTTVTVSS
Chain of 6F4, monoclonal anti-L198 antibody (VL, as listed by the source, chain 2 of 2): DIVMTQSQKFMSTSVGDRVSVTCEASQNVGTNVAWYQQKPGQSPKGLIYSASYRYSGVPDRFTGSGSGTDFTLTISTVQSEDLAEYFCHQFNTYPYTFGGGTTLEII
Chain of 7C7, recombinant IgG2c antibody (VH, as listed by the source, chain 1 of 2): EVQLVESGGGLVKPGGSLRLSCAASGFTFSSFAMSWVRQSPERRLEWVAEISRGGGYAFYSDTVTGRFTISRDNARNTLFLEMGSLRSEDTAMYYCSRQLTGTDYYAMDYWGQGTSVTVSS
Chain of 7C7, recombinant IgG2c antibody (VL, as listed by the source, chain 2 of 2): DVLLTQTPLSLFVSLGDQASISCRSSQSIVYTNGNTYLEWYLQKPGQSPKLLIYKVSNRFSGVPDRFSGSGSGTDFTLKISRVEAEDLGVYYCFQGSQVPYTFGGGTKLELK
Chain of 23D5, recombinant IgG2c antibody (VH, as listed by the source, chain 1 of 2): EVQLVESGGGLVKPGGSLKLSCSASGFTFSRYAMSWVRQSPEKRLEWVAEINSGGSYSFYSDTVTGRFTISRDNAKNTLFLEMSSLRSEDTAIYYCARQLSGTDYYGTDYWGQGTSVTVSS
Chain of 23D5, recombinant IgG2c antibody (VL, as listed by the source, chain 2 of 2): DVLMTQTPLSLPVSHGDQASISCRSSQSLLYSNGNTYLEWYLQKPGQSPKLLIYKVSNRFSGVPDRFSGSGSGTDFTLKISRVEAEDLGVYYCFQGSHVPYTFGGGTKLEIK
Chain of 63F6, monoclonal anti-A199 antibody (VH, as listed by the source, chain 1 of 2): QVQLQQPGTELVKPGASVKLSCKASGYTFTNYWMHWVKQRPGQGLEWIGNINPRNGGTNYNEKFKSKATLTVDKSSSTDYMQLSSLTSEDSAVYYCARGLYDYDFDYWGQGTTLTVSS
Chain of 63F6, monoclonal anti-A199 antibody (VL, as listed by the source, chain 2 of 2): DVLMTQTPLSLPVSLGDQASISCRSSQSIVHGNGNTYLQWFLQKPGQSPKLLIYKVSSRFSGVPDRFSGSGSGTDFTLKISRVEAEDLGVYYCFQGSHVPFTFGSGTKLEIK
Chain of 17G4, recombinant IgG2c antibody (VH, as listed by the source, chain 1 of 2): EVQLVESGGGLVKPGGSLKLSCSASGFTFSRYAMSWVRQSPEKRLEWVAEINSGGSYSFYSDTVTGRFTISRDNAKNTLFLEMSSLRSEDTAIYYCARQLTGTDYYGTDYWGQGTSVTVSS

B1: 8B3, monoclonal anti-L198 antibody (antibody, IgG2b, V domains shown)
VH: EVKVEESGGGVVQPGGSMKLSCLASGFTFRNYWMNWVRQSPEKGLEWVAQIRLKSDNYATRYAESVKGRFTISRDDSKSSVYLQMNNLRAEDTGTYYCSGHILLRYYALDFWGQGTSVTVSS
VL: DIVLTQSQKFMSTSVGDRVSVTCKASQNVYTDVAWYQQKPGQSPKGMIYSASYRYSGVPDRFTGSGSGTDFTLKISNVQSEDLAEYFCQQYNSFPYTFGGGTKLEIK
Regarding B1, the EC50 in test [1] was found to be 1.3 ng/mL; in test [2], 8.4 ng/mL. The binding result is listed as “binds” in [3] and “no binding (tested: 2 ug/ml (text))” in test [4]. Besides, the koff in test [5] amounted to 0.000302 s⁻¹. The kon in [6] was found to be 42000 M⁻¹ s⁻¹. Also, the Kd in test [7] amounted to 12 nM.

B2: A199 N-terminal neo-epitope peptide AGQPLQ-Acp-C (SEQ ID NO:51) conjugated to BSA (peptide)
peptide: AGQPLQ[Ahx]C
modifications: not fully specified (residue 8); printed as AGQPLQ-Acp-C; also: C-terminal Cys conjugated to BSA carrier
notes: BSA carrier; also called A199-BSA peptide
B2: the binding result in [8], in test [9], in test [10], in test [11] and in [14] was “no binding (tested: 10000 ng/ml)” throughout. In addition, the IC50 in [12] stood at 0.0526 µg/mL; in test [13] it was 2.9 ng/mL; in test [15], 2.5 ng/mL; in test [16], 0.0277 µg/mL.
